From the supplement of paper PMC5998384 come the findings set out here.

Series [1] deals with HeLa Kyoto. Briefly: solubility in G1/S (NP-40 vs SDS abundance) (log2 ratio); higher = more soluble. The following applies: cell cycle stage: G1/S.
Series [2] relates to HeLa Kyoto. Briefly: solubility change mitosis vs G1/S (difference of NP-40 vs SDS log2 ratios) (log2 ratio difference); higher = more soluble in mitosis.
For series [3], the system named is HeLa Kyoto. Briefly: melting temperature (median over replicates), in situ; higher = more thermally stable.
Series [4] concerns HeLa Kyoto. Briefly: thermal stability score vs G1/S (z-score of summed log2 fold changes over temperatures); higher = more thermally stable than in G1/S.
The mark [5] stands for this setting: cell cycle stage: early G1 (4.5 h after nocodazole release).
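Wherever melting temperature (median over replicates), in situ is given: HeLa Kyoto cells synchronized by double thymidine or nocodazole block, proteins quantified by TMT10plex mass spectrometry, three independent biological replicates.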
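Wherever solubility change mitosis vs G1/S (difference of NP-40 vs SDS log2 ratios) is given: synchronized HeLa Kyoto cells (double thymidine block for G1/S, nocodazole release for mitosis), protein amounts in NP-40 versus SDS lysates quantified by mass spectrometry, three biological replicates.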
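Wherever solubility in G1/S (NP-40 vs SDS abundance) is given: HeLa Kyoto cells arrested at G1/S by double thymidine block, proteins quantified by TMT10plex mass spectrometry in mild NP-40 versus SDS extracts, three biological replicates.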
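Wherever thermal stability score vs G1/S (z-score of summed log2 fold changes over temperatures) is given: synchronized HeLa Kyoto cells, proteins quantified by TMT10plex mass spectrometry, three biological replicates, mitosis taken 0.5 h after nocodazole release, G1/S directly after double thymidine block.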

With SLC35E1, the “solubility in G1/S (log2)” value in the series on HeLa Kyoto [1] was -0.14. In addition, the “solubility change mitosis (log2)” value with HeLa Kyoto [2] is -0.172. For the same substance, the figures for the melting temperature in the series on HeLa Kyoto [3] (cell cycle stage: G1/S) and with HeLa Kyoto [3] (cell cycle stage: mitosis) were 51.3 °C and 52 °C, respectively. The thermal stability score came to 0.109 in the series with HeLa Kyoto [4] (setting [5]) and 0.648 with HeLa Kyoto [4] (cell cycle stage: mitosis).

For the substance “MADGDSGSERGGGGGPCGFQPASRGGGEQETQELASKRLDIQNKRFYLDVKQNAKGRFLKIAEVGAGGSKSRLTLSMAVAAEFRDSLGDFIEHYAQLGPSSPEQLAAGAEEGGGPRRALKSEFLVRENRKYYLDLKENQRGRFLRIRQTVNRGGGGFGAGPGPGGLQSGQTIALPAQGLIEFRDALAKLIDDYGGEDDELAGGPGGGAGGPGGGLYGELPEGTSITVDSKRFFFDVGCNKYGVFLRVSEVKPSYRNAITVPFKAWGKFGGAFCRYADEMKEIQERQRDKLYERRGGGSGGGEESEGEEVDED [PURB]”, in the series with HeLa Kyoto [1], the “solubility in G1/S (log2)” value was 0.381. For the same substance, in the series on HeLa Kyoto [2], the “solubility change mitosis (log2)” value was determined as 0.0319. Also, the melting temperature was 54.2 °C with HeLa Kyoto [3] (cell cycle stage: G1/S) and 54.1 °C in the series on HeLa Kyoto [3] (cell cycle stage: mitosis). For the same substance, the thermal stability score was -1.12 in the series with HeLa Kyoto [4] (setting [5]) and -5.37 in the series with HeLa Kyoto [4] (cell cycle stage: mitosis).

“MALNKNHSEGGGVIVNNTESILMSYDHVELTFNDMKNVPEAFKGTKKGTVYLTPYRVIFLSKGKDAMQSFMMPFYLMKDCEIKQPVFGANYIKGTVKAEAGGGWEGSASYKLTFTAGGAIEFGQRMLQVASQASRGEVPSGAYGYSYMPSGAYVYPPPVANGMYPCPPGYPYPPPPPEFYPGPPMMDGAMGYVQPPPPPYPGPMEPPVSGPDVPSTPAAEAKAAEAAASAYYNPGNPHNVYMPTSQPPPPPYYPPEDKKTQ [WBP2]”: the “solubility in G1/S (log2)” value in the series on HeLa Kyoto [1] was 0.283. The “solubility change mitosis (log2)” value with HeLa Kyoto [2] is -0.0665. Moreover, the melting temperature with HeLa Kyoto [3] (cell cycle stage: G1/S) amounted to 54.1 °C; with HeLa Kyoto [3] (cell cycle stage: mitosis), 54.5 °C. Besides, the thermal stability score in the series with HeLa Kyoto [4] (setting [5]) is 0.182; with HeLa Kyoto [4] (cell cycle stage: mitosis), -1.41.

As to “MKPSGEDQAALAAGPWEECFQAAVQLALRAGQIIRKALTEEKRVSTKTSAADLVTETDHLVEDLIISELRERFPSHRFIAEEAAASGAKCVLTHSPTWIIDPIDGTCNFVHRFPTVAVSIGFAVRQELEFGVIYHCTEERLYTGRRGRGAFCNGQRLRVSGETDLSKALVLTEIGPKRDPATLKLFLSNMERLLHAKAHGVRVIGSSTLALCHLASGAADAYYQFGLHCWDLAAATVIIREAGGIVIDTSGGPLDLMACRVVAASTREMAMLIAQALQTINYGRDDEK [IMPA2]”, the “solubility in G1/S (log2)” value with HeLa Kyoto [1] came to 0.109. In the series with HeLa Kyoto [2], the “solubility change mitosis (log2)” value was -0.261. The melting temperature in the series with HeLa Kyoto [3] (cell cycle stage: G1/S) was found to be 58.2 °C; in the series on HeLa Kyoto [3] (cell cycle stage: mitosis), 60.1 °C. Also, the thermal stability score in the series with HeLa Kyoto [4] (setting [5]) was -0.528; in the series with HeLa Kyoto [4] (cell cycle stage: mitosis), -0.16.

In the case of “MLNVPSQSFPAPRSQQRVASGGRSKVPLKQGRSLMDWIRLTKSGKDLTGLKGRLIEVTEEELKKHNKKDDCWICIRGFVYNVSPYMEYHPGGEDELMRAAGSDGTELFDQVHRWVNYESMLKECLVGRMAIKPAVLKDYREEEKKVLNGMLPKSQVTDTLAKEGPSYPSYDWFQTDSLVTIAIYTKQKDINLDSIIVDHQNDSFRAETIIKDCLYLIHIGLSHEVQEDFSVRVVESVGKIEIVLQKKENTSWDFLGHPLKNHNSLIPRKDTGLYYRKCQLISKEDVTHDTRLFCLMLPPSTHLQVPIGQHVYLKLPITGTEIVKPYTPVSGSLLSEFKEPVLPNNKYIYFLIKIYPTGLFTPELDRLQIGDFVSVSSPEGNFKISKFQELEDLFLLAAGTGFTPMVKILNYALTDIPSLRKVKLMFFNKTEDDIIWRSQLEKLAFKDKRLDVEFVLSAPISEWNGKQGHISPALLSEFLKRNLDKSKVLVCICGPVPFTEQGVRLLHDLNFSKNEIHSFTA [CYB5R4]”, in the series on HeLa Kyoto [1], the “solubility in G1/S (log2)” value is 0.0176. The “solubility change mitosis (log2)” value in the series with HeLa Kyoto [2] is -0.0937. For the same substance, the melting temperature is 53.6 °C in the series with HeLa Kyoto [3] (cell cycle stage: G1/S) and 53.7 °C in the series on HeLa Kyoto [3] (cell cycle stage: mitosis). Further, the values for the thermal stability score with HeLa Kyoto [4] (setting [5]) and in the series on HeLa Kyoto [4] (cell cycle stage: mitosis) were -0.0239 and -0.629, respectively.

Turning to “MAGLPRRIIKETQRLLAEPVPGIKAEPDESNARYFHVVIAGPQDSPFEGGTFKLELFLPEEYPMAAPKVRFMTKIYHPNVDKLGRICLDILKDKWSPALQIRTVLLSIQALLSAPNPDDPLANDVAEQWKTNEAQAIETARAWTRLYAMNNI [UBE2N]”, the “solubility in G1/S (log2)” value in the series on HeLa Kyoto [1] is 0.641. For the same substance, in the series on HeLa Kyoto [2], the “solubility change mitosis (log2)” value is 0.111. For the same substance, the melting temperature in the series on HeLa Kyoto [3] (cell cycle stage: G1/S) and in the series on HeLa Kyoto [3] (cell cycle stage: mitosis) was 52.1 °C each time. Further, the thermal stability score in the series on HeLa Kyoto [4] (setting [5]) is -0.982; in the series on HeLa Kyoto [4] (cell cycle stage: mitosis) it was -0.49.
